From patent publication US20050136055A1

Key:
[1] = target: Fc receptors (FcR) on cynomolgus leukocytes (cynomolgus); experiment: 125I-labelled IgG1 control on cynomolgus leukocytes, 4 C
[2] = target: Fc receptors (FcR) on human leukocytes (human); experiment: 125I-labelled IgG1 control on human leukocytes, 4 C

- specific binding as % of the total bound radioactivity [1]: 51%
- specific binding as % of the total bound radioactivity [2]: 56%
Substance: human IgG1 control mAb (antibody)
